These results are taken from patent US20110142851A1 (EMERGENT PRODUCT DEVELOPMENT SEATTLE, published 2011).

The target in test [1] is T1, recombinant human IL6 (human, UniProt P05231 30-212).
T1 construct: also called rhIL6; IL6 monomer
Briefly: SPR Biacore, mAb captured by anti-mouse Fc, single cycle kinetics.

For test [2], the target named is T2, Hyper-IL6 (human).
T2 chain: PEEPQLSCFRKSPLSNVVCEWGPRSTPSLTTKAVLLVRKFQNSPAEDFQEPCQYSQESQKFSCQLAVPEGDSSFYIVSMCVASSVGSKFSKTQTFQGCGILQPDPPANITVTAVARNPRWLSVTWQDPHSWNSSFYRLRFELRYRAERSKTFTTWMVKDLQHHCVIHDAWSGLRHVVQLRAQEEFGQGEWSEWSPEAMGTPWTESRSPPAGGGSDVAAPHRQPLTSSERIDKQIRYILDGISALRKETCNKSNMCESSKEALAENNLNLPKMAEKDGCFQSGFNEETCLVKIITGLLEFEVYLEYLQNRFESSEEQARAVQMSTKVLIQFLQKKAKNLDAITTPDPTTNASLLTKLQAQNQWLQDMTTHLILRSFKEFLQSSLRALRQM
Put plainly: SPR Biacore, mAb captured by anti-mouse Fc, HIL6 injected.

Test [3] has as its target T3, hu HIL6 AFH monomer (human).
T3 chain: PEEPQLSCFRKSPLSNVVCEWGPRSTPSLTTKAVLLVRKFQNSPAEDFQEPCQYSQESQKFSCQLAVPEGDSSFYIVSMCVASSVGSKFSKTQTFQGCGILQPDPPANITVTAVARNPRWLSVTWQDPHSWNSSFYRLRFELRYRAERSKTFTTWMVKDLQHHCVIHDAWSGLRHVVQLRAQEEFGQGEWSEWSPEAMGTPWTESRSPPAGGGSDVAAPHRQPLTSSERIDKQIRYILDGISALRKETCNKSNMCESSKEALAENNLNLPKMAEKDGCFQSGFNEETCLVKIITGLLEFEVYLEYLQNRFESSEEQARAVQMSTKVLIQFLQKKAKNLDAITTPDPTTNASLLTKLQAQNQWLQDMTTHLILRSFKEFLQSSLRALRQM
Briefly: SPR Biacore T100, binder captured by anti-human Fc.

Test [4] addresses T1, recombinant human IL6. Put plainly: SPR Biacore T100, binder captured by anti-human Fc.
Test [5] deals with T4, sIL6R Fc dimer (UniProt P08887 20-358, limits assumed).
T4 construct: not shown: Fc
T4 sequence (looked up): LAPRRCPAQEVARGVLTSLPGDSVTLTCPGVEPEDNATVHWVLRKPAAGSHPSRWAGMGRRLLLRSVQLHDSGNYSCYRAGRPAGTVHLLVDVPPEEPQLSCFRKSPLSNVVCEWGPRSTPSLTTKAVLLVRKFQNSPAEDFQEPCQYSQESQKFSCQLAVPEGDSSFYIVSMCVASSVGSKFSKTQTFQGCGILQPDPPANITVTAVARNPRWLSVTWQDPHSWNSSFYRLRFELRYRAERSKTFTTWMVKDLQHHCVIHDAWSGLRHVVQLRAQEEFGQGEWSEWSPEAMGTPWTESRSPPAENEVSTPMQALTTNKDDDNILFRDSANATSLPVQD
Briefly: SPR Biacore T100, binder captured by anti-human Fc.

Test [6] has as its target T5, hu HIL6 Fc dimer (dimeric human HIL6/mouse IgG Fc fusion protein) (human).
T5 construct: also called human hyper-IL6 (IL6R-IL6-mIgG); dimeric HIL6
T5 chain: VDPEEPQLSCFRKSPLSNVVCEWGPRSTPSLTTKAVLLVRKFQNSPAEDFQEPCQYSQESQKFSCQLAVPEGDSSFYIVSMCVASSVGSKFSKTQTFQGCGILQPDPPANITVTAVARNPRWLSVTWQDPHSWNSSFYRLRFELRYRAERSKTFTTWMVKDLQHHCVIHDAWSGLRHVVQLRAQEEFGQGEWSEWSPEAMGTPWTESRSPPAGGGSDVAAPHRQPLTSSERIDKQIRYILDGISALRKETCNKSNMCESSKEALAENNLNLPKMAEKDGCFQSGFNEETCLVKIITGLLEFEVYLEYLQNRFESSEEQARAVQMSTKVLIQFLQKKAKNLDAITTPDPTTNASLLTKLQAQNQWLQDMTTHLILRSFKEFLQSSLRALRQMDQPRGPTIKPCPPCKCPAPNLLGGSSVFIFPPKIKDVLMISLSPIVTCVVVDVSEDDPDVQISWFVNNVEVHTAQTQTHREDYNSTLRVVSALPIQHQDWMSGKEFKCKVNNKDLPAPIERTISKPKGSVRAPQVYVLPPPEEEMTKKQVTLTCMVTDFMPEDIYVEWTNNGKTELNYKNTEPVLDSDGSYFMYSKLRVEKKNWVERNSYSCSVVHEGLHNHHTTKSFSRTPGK
Briefly: SPR Biacore T100, binder captured by anti-human Fc.

The target in test [7] is T2, Hyper-IL6. Briefly: SPR Biacore, binder captured by anti-human Fc, HIL6 injected. The protocol:
(§1) Anti-IL6 binding domains were captured using immobilized anti-mouse Fc polyclonal antibody in the case of anti-IL6 antibodies, or an anti-human Fc monoclonal in the case of SMIPs, Xceptors, and humanized SMIPs. IL6 binding to the anti-IL6 binding domains was studied using single cycle kinetics. Five sequential injections of IL6 were made per cycle starting with the lowest concentration of IL6 (6.4 pM) and progressing to the highest concentration (4,000 pM). The flow rate was 45 μL per minute and each injection of IL6 lasted 7 minutes. At the end of the highest IL6 concentration injection, IL6 was allowed to dissociate for 30 minutes. The data were fit to a one-to-one binding single cycle kinetics model. HIL6 binding was studied by injecting a single concentration of HIL6 (from 6.4-4,000 pM) per cycle for 7 minutes, and then allowing the bound HIL6 to dissociate for either 30 seconds (0 to 800 pM) or one hour (0 and 4,000 pM). […] All analysis was performed using BIAevaluation software.

For test [8], the target named is T1, recombinant human IL6. Put plainly: SPR Biacore, binder captured by anti-human Fc, single cycle kinetics. The protocol:
as §1

B1: AH-65 mAb (antibody, V domains shown)
VH: EVQLVESGGGLVQPKGTLRLSCAASGFSFNTYAMNWVRQAPGKSLEWVARTVTKSNKYATYYADSVSDRVTISREDSQSMLYLQMTNLKTEDTAMYYCVREDYYGTLDYWGQGTSVTVSS
VL: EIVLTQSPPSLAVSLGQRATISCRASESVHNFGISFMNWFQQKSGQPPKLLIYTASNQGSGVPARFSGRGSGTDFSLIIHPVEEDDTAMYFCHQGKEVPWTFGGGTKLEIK
With B1, in test [1], the Kd came to 0.007 nM, the koff amounted to 2.2e-05 s⁻¹ and the on-rate (kon) was found to be 3.2e+06 M⁻¹ s⁻¹. Besides, in test [2], binding was characterised by a dissociation constant (Kd) of 0.012 nM, the koff amounted to 2.4e-05 s⁻¹ and the kon turned out to be 2e+06 M⁻¹ s⁻¹.

B2: TRU(XT6)-1029 (Fc fusion)
chain: LPAQVAFTPYAPEPGSTCRLREYYDQTAQMCCSKCSPGQHAKVFCTKTSDTVCDSCEDSTYTQLWNWVPECLSCGSRCSSDQVETQACTREQNRICTCRPGWYCALSKQEGCRLCAPLRKCRPGFGVARPGTETSDVVCKPCAPGTFSNTTSSTDICRPHQICNVVAIPGNASMDAVCTSTSPTRSMAPGAVHLPQPVSTRSQHTQPTPEPSTAPSTSFLLPMGPSPPAEGSTGDTGEPKSSDKTHTCPPCPAPEAAGAPSVFLFPPKPKDTLMISRTPEVTCVVVDVSHEDPEVKFNWYVDGVEVHNAKTKPREEQYNSTYRVVSVLTVLHQDWLNGKAYACAVSNKALPAPIEKTISKAKGQPREPQVYTLPPSRDELTKNQVSLTCLVKGFYPSDIAVEWESNGQPENNYKTTPPVLDSDGSFFLYSKLTVDKSRWQQGNVFSCSVMHEALHNHYTQKSLSLSPGQRHNNSSLNTRTQKARHSPNSEVQLLESGGGLVQPGGSLRLSCAASGFTFSSYWMHWVRQAPGKGLEWVSSIYPSGGSTEYADSVKGRFTISRDNSKNTLYLQMNSLRAEDTAVYYCAKGIWFDPWGQGTLVTVSSGGGGSGGGGSGGGGSQDIQMTQSPATLSASVGDRVTITCRSSQRISGYLNWYQQQPGKAPKLLIYAASTLQSGVPSRISGSGSGTDFSLIISSLQPEDVATYYCQQSYSPPFTFGQGTKVEIK
notes: Xceptor, TNFRSF1B ectodomain N-terminal, anti-IL6xR domain C-terminal
With B2, the Kd was found to be 3000 nM in test [3] and 49 nM in test [6]. Also, the binding result in test [4] and in test [5] was “no binding (tested: 100 nM)” each time.

B3: TRU(XT6)-1025 (Fc fusion)
chain: LPAQVAFTPYAPEPGSTCRLREYYDQTAQMCCSKCSPGQHAKVFCTKTSDTVCDSCEDSTYTQLWNWVPECLSCGSRCSSDQVETQACTREQNRICTCRPGWYCALSKQEGCRLCAPLRKCRPGFGVARPGTETSDVVCKPCAPGTFSNTTSSTDICRPHQICNVVAIPGNASMDAVCTSTSPTRSMAPGAVHLPQPVSTRSQHTQPTPEPSTAPSTSFLLPMGPSPPAEGSTGDTGEPKSSDKTHTCPPCPAPEAAGAPSVFLFPPKPKDTLMISRTPEVTCVVVDVSHEDPEVKFNWYVDGVEVHNAKTKPREEQYNSTYRVVSVLTVLHQDWLNGKAYACAVSNKALPAPIEKTISKAKGQPREPQVYTLPPSRDELTKNQVSLTCLVKGFYPSDIAVEWESNGQPENNYKTTPPVLDSDGSFFLYSKLTVDKSRWQQGNVFSCSVMHEALHNHYTQKSLSLSPGQRHNNSSLNTRTQKARHSPNSEVQLLESGGGLVQPGGSLRLSCAASGFTFSHYGMHWVRQAPGKGLEWVSSIYPGMTQYADSVKGRFTISRDNSKNTLYLQMNSLRAEDTAVYYCARDRGSGIDAFDIWGQGTMVTVSSGGGGSGGGGSGGGGSQSELTQPPSVSVSPGQTATVSCSGEKLGDRYAWWYQQKAGQSPVLVIYQDTKRPSGVPDRFSGSNSGTSASLVISGPQSEDEADYYCAAWDDSLKGVVFGGGSKLTVL
notes: as for B2
With B3, the figures for the Kd in test [3] and in test [6] were 6.3 nM and 25 nM, respectively. In test [4], the binding result was “no binding (tested: 100 nM)”.

B4: CLB-8 mAb (antibody, V domains shown)
VH: EVQLVESGGKLLKPGGSLKLSCAASGFTFSSFAMSWFRQSPEKRLEWVAEISSGGSYTYYPDTVTGRFTISRDNAKNTLYLEMSSLRSEDTAMYYCARGLWGYYALDYWGQGTSVTVSS
VL: QIVLIQSPAIMSASPGEKVTMTCSASSSVSYMYWYQQKPGSSPRLLIYDTSNLASGVPVRFSGSGSGTSYSLTISRMEAEDAATYYCQQWSGYPYTFGGGTKLEIKR
Regarding B4, in test [1], the Kd came to 0.022 nM, the koff amounted to 5e-05 s⁻¹ and the kon was found to be 2.3e+06 M⁻¹ s⁻¹.

B5: TRU(S6)-1063 (Fc fusion)
VH: EVQLVESGGGLVQPGGSLRLSCAASGFTFNTYAMNWVRQAPGKGLEWVGRTVTKSNKYATYYADSVSDRFTISRDDSKNSLYLQMNSLKTEDTAVYYCAREDYYGTLDYWGQGTLVTVSS
VL: EIVLTQSPATLSLSPGERATLSCRASESVHNFGISFMNWYQQKPGQAPRLLIYTASNQGSGIPARFSGSGSGTDFTLTISSLEPEDFAVYYCHQGKEVPWTFGQGTKVEIK
notes: Humanized SMIP fusion protein (single chain)
In test [7], B5 had a Kd of 0.05 nM, a koff of 0.00018 s⁻¹ and a kon of 3.6e+06 M⁻¹ s⁻¹. Moreover, in test [8], the Kd is 0.051 nM, the koff is 0.00019 s⁻¹ and the kon was found to be 3.9e+06 M⁻¹ s⁻¹.

B6: TRU(S6)-1064 (Fc fusion)
VH: EVQLVESGGGLVQPGGSLRLSCAASGFTFNTYAMNWVRQAPGKGLEWVGRTVTKSNKYATYYADSVSDRFTISRDDSKNSLYLQMNSLKTEDTAVYYCAREDYYGTLDYWGQGTLVTVSS
VL: DIVLTQSPASLAVSPGQRATITCRASESVHNFGISFMNWYQQKPGQPPKLLIYTASNQGSGVPARFSGSGSGTDFTLTINPVEANDTANYYCHQGKEVPWTFGQGTKVEIK
notes: as for B5
For the molecule B6, in test [7], binding was characterised by a dissociation constant (Kd) of 0.046 nM, the koff was determined as 0.00019 s⁻¹ and the kon is 4.1e+06 M⁻¹ s⁻¹. In test [8], the Kd stood at 0.048 nM, the koff was 0.0002 s⁻¹ and the kon is 4.2e+06 M⁻¹ s⁻¹.

B7: BSF2-77 mAb (antibody, V domains shown)
VH: QVQLQQPGAELVKPGASVKLSCKASGYIFTSYWMHWVKQRPGQGLEWIGEINPSNGRTNYNERFKSKATLTVDKSSSTAYIQLSSLTSDDSAVYYCSRSDTKATCDYWGQGTTLTVSS
VL: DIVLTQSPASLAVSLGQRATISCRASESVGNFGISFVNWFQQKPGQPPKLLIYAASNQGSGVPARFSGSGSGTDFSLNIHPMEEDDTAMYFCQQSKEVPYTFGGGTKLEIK
As to B7, in test [1], the Kd came to 0.41 nM, the koff is 0.002 s⁻¹ and the kon is 4.8e+06 M⁻¹ s⁻¹. Besides, in test [2], the affinity, expressed as Kd, was 0.444 nM; the koff was found to be 0.00096 s⁻¹; the kon came out at 2.2e+06 M⁻¹ s⁻¹.
